These results are taken from PMC4436786.

“And” between values parts separate entries of the source, which are not always exact repeats. Identical values can stand only once.

The target in experiment [1] is AtSfh8 nodulin (soluble, recombinant) (Arabidopsis thaliana). The experiment in a line: SEC.
Experiment [2] has as its target His-tagged AtSfh1 nodulin (recombinant, solubilized in 8 M urea) (Arabidopsis thaliana). The experiment in a line: SDS-PAGE.
The target in experiment [3] is mRFP-AtSfh1 nodulin (WT) (Arabidopsis thaliana). The experiment in a line: SEC.
For experiment [4], the target named is myc-tagged AtSfh1 nodulin (Arabidopsis thaliana). The experiment in a line: SEC.
For experiment [5], the target named is mRFP-AtSfh1^E485P,Q534P nodulin (Arabidopsis thaliana). The experiment in a line: SEC.
Experiment [6] addresses His-tagged AtSfh3 nodulin (soluble, recombinant) (Arabidopsis thaliana). The experiment in a line: SEC.
Experiment [7] concerns the target AtSfh5 nodulin (soluble, recombinant) (Arabidopsis thaliana). The experiment in a line: SEC.

Chain of His-tagged AtSfh3 nodulin (soluble, recombinant) (domain or fragment) (Q93ZE9 whole entry, the tested form may be a part): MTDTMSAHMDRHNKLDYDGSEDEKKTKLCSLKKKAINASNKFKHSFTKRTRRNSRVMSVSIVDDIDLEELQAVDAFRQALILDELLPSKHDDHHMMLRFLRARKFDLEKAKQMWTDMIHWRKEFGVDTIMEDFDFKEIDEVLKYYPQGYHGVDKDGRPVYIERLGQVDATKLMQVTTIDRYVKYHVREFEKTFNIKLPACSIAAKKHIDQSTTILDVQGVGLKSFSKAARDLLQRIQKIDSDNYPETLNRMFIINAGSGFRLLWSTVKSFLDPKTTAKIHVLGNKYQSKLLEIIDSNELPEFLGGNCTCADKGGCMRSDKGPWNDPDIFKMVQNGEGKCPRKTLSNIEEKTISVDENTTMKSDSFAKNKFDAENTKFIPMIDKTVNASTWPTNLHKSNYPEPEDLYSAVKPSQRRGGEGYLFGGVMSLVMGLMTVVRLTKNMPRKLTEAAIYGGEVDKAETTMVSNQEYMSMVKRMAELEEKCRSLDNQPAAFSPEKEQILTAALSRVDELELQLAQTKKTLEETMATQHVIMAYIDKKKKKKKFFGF
Chain of AtSfh5 nodulin (soluble, recombinant) (domain or fragment) (Q8GXC6 whole entry, the tested form may be a part): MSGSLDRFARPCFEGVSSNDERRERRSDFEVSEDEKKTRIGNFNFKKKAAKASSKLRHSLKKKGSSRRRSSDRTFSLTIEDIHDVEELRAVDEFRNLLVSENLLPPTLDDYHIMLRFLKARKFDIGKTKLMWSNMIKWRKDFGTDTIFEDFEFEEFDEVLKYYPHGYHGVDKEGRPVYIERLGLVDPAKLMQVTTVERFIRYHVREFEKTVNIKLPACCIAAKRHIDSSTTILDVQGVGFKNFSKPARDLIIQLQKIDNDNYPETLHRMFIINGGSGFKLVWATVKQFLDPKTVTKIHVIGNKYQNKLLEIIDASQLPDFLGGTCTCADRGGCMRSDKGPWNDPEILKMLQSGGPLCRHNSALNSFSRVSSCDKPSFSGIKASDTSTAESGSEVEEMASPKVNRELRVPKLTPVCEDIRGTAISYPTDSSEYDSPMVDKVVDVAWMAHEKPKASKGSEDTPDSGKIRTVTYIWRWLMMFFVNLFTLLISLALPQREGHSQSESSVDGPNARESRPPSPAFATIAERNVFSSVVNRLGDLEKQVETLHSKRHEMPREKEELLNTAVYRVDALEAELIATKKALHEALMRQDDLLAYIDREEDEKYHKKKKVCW
Chain of AtSfh8 nodulin (soluble, recombinant) (domain or fragment) (F4IHJ0 whole entry, the tested form may be a part): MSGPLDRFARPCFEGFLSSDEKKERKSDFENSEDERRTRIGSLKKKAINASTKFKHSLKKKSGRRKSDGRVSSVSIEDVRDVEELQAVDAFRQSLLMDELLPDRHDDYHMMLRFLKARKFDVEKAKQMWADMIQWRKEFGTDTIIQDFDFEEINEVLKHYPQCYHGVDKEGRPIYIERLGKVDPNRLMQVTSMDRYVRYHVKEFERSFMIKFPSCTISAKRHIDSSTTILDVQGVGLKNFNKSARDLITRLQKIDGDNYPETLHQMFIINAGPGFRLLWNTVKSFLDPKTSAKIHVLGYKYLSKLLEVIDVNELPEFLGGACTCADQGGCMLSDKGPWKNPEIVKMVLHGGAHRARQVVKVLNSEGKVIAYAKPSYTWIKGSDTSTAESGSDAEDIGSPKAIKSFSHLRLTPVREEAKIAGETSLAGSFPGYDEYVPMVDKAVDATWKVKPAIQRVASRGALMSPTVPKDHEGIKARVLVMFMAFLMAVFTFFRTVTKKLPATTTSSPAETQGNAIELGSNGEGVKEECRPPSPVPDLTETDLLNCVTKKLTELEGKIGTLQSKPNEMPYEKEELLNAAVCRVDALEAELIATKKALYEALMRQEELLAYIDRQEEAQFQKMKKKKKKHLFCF
Chain of His-tagged AtSfh1 nodulin (recombinant, solubilized in 8 M urea) (domain or fragment) (F4JLE5 whole entry, the tested form may be a part): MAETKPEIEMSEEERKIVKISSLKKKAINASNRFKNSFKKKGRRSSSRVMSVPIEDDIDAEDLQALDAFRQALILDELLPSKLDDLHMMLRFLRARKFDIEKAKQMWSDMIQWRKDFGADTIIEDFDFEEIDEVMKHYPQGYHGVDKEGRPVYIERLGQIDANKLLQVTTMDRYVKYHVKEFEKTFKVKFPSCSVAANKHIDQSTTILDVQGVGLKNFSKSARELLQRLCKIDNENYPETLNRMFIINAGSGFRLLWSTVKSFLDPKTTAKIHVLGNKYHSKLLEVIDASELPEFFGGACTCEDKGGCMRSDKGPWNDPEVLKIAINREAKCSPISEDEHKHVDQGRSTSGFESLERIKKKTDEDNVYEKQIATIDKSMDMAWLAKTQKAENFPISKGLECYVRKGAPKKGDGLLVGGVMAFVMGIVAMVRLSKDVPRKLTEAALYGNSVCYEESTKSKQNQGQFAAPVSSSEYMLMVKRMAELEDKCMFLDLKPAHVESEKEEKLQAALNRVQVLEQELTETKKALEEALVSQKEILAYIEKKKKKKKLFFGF

For “AtSfh8 nodulin (soluble, recombinant) (domain or fragment)”, the stoichiometry N in experiment [1] came out at 6.
Take “His-tagged AtSfh1 nodulin (recombinant, solubilized in 8 M urea) (domain or fragment)”: the stoichiometry N in experiment [2] stood at 8.
As to “mRFP-AtSfh1 nodulin (WT) (domain or fragment)”, the stoichiometry N in experiment [3] turned out to be 4.
Consider “myc-tagged AtSfh1 nodulin (domain or fragment)”, for which the stoichiometry N in experiment [4] was 6 and 8.
In turn, “mRFP-AtSfh1^E485P,Q534P nodulin (domain or fragment)” registered a stoichiometry N in experiment [5] of 2.
As to “His-tagged AtSfh3 nodulin (soluble, recombinant) (domain or fragment)”, the stoichiometry N in experiment [6] amounted to 6.
For “AtSfh5 nodulin (soluble, recombinant) (domain or fragment)”, in experiment [7], the stoichiometry N amounted to 6.
